Measurements taken from PMC4380446.

Experiments:
[1] = test system: haemagglutinin on whole H9N2 virus (Influenza A virus H9N2 (avian; strain not given in material)); test: competition ELAA
[2] = test system: purified haemagglutinin H9 (H9-HA) (Influenza A virus H9N2 (avian; strain not given in material)); test: capillary electrophoresis
[3] = test system: haemagglutinin on whole H9N2 virus (Influenza A virus H9N2 (avian; strain not given in material)); test: capillary electrophoresis

Row | Sequence | inhibition of binding [1] | Kd [2] | Kd [3]
1 | GCTGCAATACTCATGGACAGCCTCCTGGGGTCAGGCTCAGACATTGATAAAGCGACATCGGTCTGGAGTACGACCCTGAA [A9] | 76.3 % inhibition | 46.2 nM | 42.5 nM
2 | GCTGCAATACTCATGGACAGCGGGGGTCTCGCCCTCCCGGCGGCCTCGGCGAGCGTCGGCGTCTGGAGTACGACCCTGAA [A6] | – | 20.6 nM | –
